Data on 2 molecules can be found in patent publication US9932621B2, “Modulators for Sirt5 and assays for screening same” (CORNELL UNIVERSITY, priority 2010, dated 2018).

In assay [1] the target is T1, Sirt5 (Homo sapiens, UniProt Q9NXA8).
T1 construct: made in house
T1 sequence (Q9NXA8 37-310): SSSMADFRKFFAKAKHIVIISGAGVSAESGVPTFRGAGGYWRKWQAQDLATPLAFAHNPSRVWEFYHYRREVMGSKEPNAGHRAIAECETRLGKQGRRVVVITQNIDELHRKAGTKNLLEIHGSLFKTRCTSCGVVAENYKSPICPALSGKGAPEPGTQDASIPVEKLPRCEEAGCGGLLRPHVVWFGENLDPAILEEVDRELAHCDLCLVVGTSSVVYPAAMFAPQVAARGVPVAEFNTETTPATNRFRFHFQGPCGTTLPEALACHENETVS
Description: Sirt5 inhibition IC50 (desuccinylase, HPLC-based assay). It is filed as biochemical. The following applies: Sirt5 1 μM, 0.3 mM acyl peptide, 0.5 mM NAD; * = no inhibition at 100 μM. The procedure:
All assays were carried out under identical enzyme (1 μM) and substrate (0.3 mM acyl peptide, 0.5 mM NAD) concentrations.

The target in a further assay is T2, Sirt1 (Homo sapiens, UniProt Q96EB6).
T2 sequence (Q96EB6 1-747): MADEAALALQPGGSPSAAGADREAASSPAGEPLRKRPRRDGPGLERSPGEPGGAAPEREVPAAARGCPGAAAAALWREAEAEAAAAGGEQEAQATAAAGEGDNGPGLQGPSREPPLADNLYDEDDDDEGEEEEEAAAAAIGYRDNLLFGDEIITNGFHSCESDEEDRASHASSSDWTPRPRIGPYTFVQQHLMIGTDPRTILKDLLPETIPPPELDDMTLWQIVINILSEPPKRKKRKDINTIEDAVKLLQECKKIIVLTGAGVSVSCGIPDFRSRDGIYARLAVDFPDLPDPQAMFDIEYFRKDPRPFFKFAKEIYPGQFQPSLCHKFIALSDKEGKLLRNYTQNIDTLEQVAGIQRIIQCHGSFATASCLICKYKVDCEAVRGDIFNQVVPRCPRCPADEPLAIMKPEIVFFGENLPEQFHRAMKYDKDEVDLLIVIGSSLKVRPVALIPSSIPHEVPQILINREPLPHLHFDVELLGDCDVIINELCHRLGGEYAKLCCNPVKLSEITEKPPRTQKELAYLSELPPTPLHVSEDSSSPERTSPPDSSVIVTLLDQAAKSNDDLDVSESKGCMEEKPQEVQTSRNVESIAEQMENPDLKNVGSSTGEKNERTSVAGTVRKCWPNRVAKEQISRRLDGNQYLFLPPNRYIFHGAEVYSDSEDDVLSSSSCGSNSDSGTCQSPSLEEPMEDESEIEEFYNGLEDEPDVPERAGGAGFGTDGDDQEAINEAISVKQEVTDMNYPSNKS
The following applies: Sirt1, literature value; read-out: IC50, reported value in parentheses; cited from earlier work.

In the next assay the target is T3, Sirt5 H158Y (Homo sapiens, UniProt Q9NXA8, H158Y).
T3 sequence (Q9NXA8 37-310 H158Y): T1 sequence (Q9NXA8 37-310) with H122Y
Description: Deacylation kinetics by HPLC, mutant Sirt5 H158Y. In kind it is biochemical. The settings on record: read-out: Km for peptide. The method, then:
(§1) For determination of kcat and Km, human Sirt1, Sirt2, Sirt3 and Sirt5 were measured by detecting the deacylated peptide from H3K9 acyl peptides using HPLC. Purified Sirtuin was incubated with 1.0 mM of NAD in 20 mM Tris-HCl buffer (pH 7.5) containing acyl peptides (0-750 μM) and 1 mM DTT in 60 μL reactions at 37° C. The reactions were stopped with 100 mM HCl and 160 mM acetic acid, analyzed by HPLC with a reverse phase C18 column (250×4.6 mm, 90 A, 10 μm, GraceVydac, Southborough, Mass.), with a linear gradient of 0% to 20% B for 10 min (1 mL/min). […] The kcat and Km values were obtained by curve-fitting the Vinitial/[E] versus [S] plot using KaleidaGraph. For Sirt5 R105M, the observed second order rate constant, kobs (rate/([Sirtuin][NAD])) was detected instead of kcat and Km because of the very weak deacylation activity. The experiments were done in duplicate.

For assay [2], the target named is T1, Sirt5. Description: Deacylation kinetics (kcat, Km) by HPLC, Sirt5. In kind it is biochemical. The settings on record: wild-type Sirt5, Table 3. The procedure: as §1
For another assay, the target named is T4, Sirt5 Y102F (Homo sapiens, UniProt Q9NXA8, Y102F).
T4 sequence (Q9NXA8 37-310 Y102F): T1 sequence (Q9NXA8 37-310) with Y66F
As to the kind of experiment: Deacylation kinetics by HPLC, mutant Sirt5 Y102F. In kind it is biochemical. The following applies: read-out: Km for peptide. The method, then: as §1

The target of another assay is T5, Sirt5 R105M (Homo sapiens, UniProt Q9NXA8, R105M).
T5 sequence (Q9NXA8 37-310 R105M): T1 sequence (Q9NXA8 37-310) with R69M
Description: Deacylation kinetics by HPLC, mutant Sirt5 R105M. It is filed as biochemical. The following applies: read-out: Km for peptide. The procedure: For determination of kcat and Km, human Sirt1, Sirt2, Sirt3 and Sirt5 were measured by detecting the deacylated peptide from H3K9 acyl peptides using HPLC. […] The reactions were stopped with 100 mM HCl and 160 mM acetic acid, analyzed by HPLC with a reverse phase C18 column (250×4.6 mm, 90 A, 10 μm, GraceVydac, Southborough, Mass.), with a linear gradient of 0% to 20% B for 10 min (1 mL/min). […] The kcat and Km values were obtained by curve-fitting the Vinitial/[E] versus [S] plot using KaleidaGraph. […] The experiments were done in duplicate.

Numbering of substitutions follows the chain as printed. *1 amine or outer side, *2 acyl side, *3 side chain or, on linkers, in order; H or OH if unused. Where no end group is shown, it is not given here. The star is where a group is joined. AMC = Cc1cc(=O)oc2cc(N*)ccc12; Suc = O=C(CCC(=O)[*:2])[*:1]

By IC50 is commonly meant the midpoint of a concentration-inhibition curve. As for `N#C/C(=C\c1ccc(-c2cc(Cl)ccc2Cl)o1)C(=O)Nc1cccc2ncccc12` [AGK2], the IC50 against Sirt5 [1] is 120 µM; on Sirt1, over 40 µM.
For orientation: Km means the substrate concentration at which the rate is half of its maximum. By kcat is commonly meant the number of substrate molecules converted per active site and unit of time at saturation. For the molecule “H3K9 succinyl peptide: synthesized H3K9 succinyl lysine peptide, Sirt5 substrate (KQTARK(Suc)-{AMC})”, the Km with Sirt5 H158Y is over 750 µM; in the assay with Sirt5 [2] (read-out: Km for peptide) it was 41 ± 11 µM; with Sirt5 Y102F, over 750 µM; with Sirt5 R105M, over 750 µM. The kcat with Sirt5 [2] was 0.029 ± 0.002 s⁻¹.
